Laboratory results published in paper PMC9855357, “Different Forms of Disorder in NMDA-Sensitive Glutamate Receptor Cytoplasmic Domains Are Associated with Differences in Condensate Formation” (Biomolecules, 2022).

Molecular target: T1, Full-length PSD-95 (post synaptic density protein of 95 kDa) (Rattus norvegicus, UniProt P31016 1-724)
T1 construct: PSD-95, Rattus norvegicus, full length
Assay: co-sedimentation; ternary mixture 1:1:1 of PSD-95, CC-PBM and CTD2A or CTD2B, 20 µM each, 20 mM tris-HCl, 150 mM NaCl, pH 7.4, 25 °C for 5 min, 13,200 x g for 1 min; supernatant and pellet on SDS-PAGE, Coomassie
Conditions: both partners purified

T1 sequence (P31016 whole entry): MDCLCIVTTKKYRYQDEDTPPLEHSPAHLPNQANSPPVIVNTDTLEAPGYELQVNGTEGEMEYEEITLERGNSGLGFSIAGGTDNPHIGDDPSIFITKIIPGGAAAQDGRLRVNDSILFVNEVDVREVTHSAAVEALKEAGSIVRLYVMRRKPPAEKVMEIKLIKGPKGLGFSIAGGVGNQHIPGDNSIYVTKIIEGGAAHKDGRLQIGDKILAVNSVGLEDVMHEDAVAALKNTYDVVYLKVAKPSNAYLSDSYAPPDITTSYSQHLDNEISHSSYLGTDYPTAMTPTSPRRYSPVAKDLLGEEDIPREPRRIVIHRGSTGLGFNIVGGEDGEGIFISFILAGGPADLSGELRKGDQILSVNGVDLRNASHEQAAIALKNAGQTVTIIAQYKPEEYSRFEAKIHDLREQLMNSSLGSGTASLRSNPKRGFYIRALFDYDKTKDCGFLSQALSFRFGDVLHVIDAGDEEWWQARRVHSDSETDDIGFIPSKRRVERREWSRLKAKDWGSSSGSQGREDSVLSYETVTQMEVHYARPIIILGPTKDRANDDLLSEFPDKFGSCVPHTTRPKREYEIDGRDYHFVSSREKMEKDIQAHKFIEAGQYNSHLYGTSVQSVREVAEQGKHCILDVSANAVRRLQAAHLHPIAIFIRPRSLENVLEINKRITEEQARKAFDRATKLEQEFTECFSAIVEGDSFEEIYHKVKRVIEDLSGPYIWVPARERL

B1: C-terminal domain 2 (CTD2) of GluN2B (residues 1259–1482) (domain or fragment, Rattus norvegicus, UniProt Q00960 1259-1482, looked up)
chain: SLQELDQPAAPVAVTSNASSTKYPQSPTNSKAQKKNRNKLRRQHSYDTFVDLQKEEAALAPRSVSLKDKGRFMDGSPYAHMFEMPAGESSFANKSSVPTAGHHHNNPGSGYMLSKSLYPDRVTQNPFIPTFGDDQCLLHGSKSYFFRQPTVAGASKTRPDFRALVTNKPVVVTLHGAVPGRFQKDICIGNQSNPCVPNNKNPRAFNGSSNGHVYEKLSSIESDV
notes: GluN2B subunit of the NMDA receptor, Rattus norvegicus, C-terminal domain 2, residues 1259-1482; Expressed from pPROEX HTB; the His tag was removed with TEV protease; also called CTD2B; GluN2B CTD2; not shown: His6, N-terminal, cleaved
- binding result: binds
